Patent publication US20230192897A1 (NUMAB THERAPEUTICS, published 2023)
Values joined by “and” are separate entries in the source; they are usually repeats but may differ in a detail not shown here. Equal values may be shown once. Read-outs that look alike come from different tables or passages of the source.

Legend:
[1] = molecular target: T1, CD137 on Jurkat NFkB reporter cells (human, UniProt Q07011 24-255); assay: cell-based or functional assay
[2] = molecular target: T1, CD137 on Jurkat NFkB reporter cells; assay: cell-based or functional assay; remark: listed apart in the source
human PDL1 on cells = human PDL1 on cells (human, UniProt Q9NZQ7 19-290); assay: cell-based or functional assay
[3] = molecular target: T1, CD137 on Jurkat NFkB reporter cells; assay: cell-based or functional assay; remark: listed apart in the source
[4] = molecular target: T1, CD137 on Jurkat NFkB reporter cells; assay: cell-based or functional assay; remark: listed apart in the source
biotinylated human PDL1 [5] = molecular target: T2, biotinylated human PDL1 (human, UniProt Q9NZQ7 19-238, limits assumed, biotinylated); assay: competition ELISA B7.1/PDL1
T2 construct: also called biotinylated PDL1
Summary of the method: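 IC₅₀ was derived by four-parameter logistic fitting of reference-subtracted A450/690 readings. The signal came from streptavidin-polyHRP40 (10 ng/ml) with a 6-minute TMB reaction detecting biotinylated PDL1 bound to the plate. Pre-mixed samples sat 1 h at RT before a 1.5 h plate incubation.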

[6] = molecular target: T1, CD137 on Jurkat NFkB reporter cells; assay: cell-based or functional assay; remark: listed apart in the source
biotinylated human PDL1 [7] = molecular target: T2, biotinylated human PDL1; assay: competition ELISA PD-1/PDL1
[8] = molecular target: T1, CD137 on Jurkat NFkB reporter cells; assay: cell-based or functional assay; remark: listed apart in the source
[9] = molecular target: T1, CD137 on Jurkat NFkB reporter cells; assay: cell-based or functional assay; remark: listed apart in the source
[10] = molecular target: T3, mouse CD137-Fc chimeric protein (mouse, UniProt P20334 24-187, limits assumed); assay: SPR
T3 sequence (looked up): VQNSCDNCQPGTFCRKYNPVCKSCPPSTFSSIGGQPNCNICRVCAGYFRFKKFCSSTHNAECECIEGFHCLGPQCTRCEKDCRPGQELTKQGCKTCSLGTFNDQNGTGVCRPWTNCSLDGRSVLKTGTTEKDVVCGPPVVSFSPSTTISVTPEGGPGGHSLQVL
Summary of the method: (§1)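 Kinetics were fitted with a one-to-one Langmuir model to give apparent ka, kd and KD. Binders at 0.12-90 nM (three-fold series) flowed 3 min, with 10 min dissociation and 3 M MgCl₂ regeneration, on a Biacore T200.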

[11] = molecular target: cynomolgus CD137-Fc chimeric protein (cynomolgus monkey, UniProt A9YYE7 24-186); assay: SPR
Summary of the method: as §1

Fc tagged human CD137 = molecular target: T4, Fc tagged human CD137 (human, UniProt Q07011 24-186); assay: SPR
T4 construct: also called CD137-Fc chimeric protein
Summary of the method: as §1

Fc tagged human PDL1 = molecular target: T5, Fc tagged human PDL1 (human, UniProt Q9NZQ7 19-239); assay: SPR
T5 construct: Bought (Sino Biological, cat. 10084-H02H); captured on the SPR chip; also called PDL1-Fc chimeric protein
Summary of the method: as §1

[12] = molecular target: T1, CD137 on Jurkat NFkB reporter cells; assay: cell-based or functional assay; remark: listed apart in the source

- EC50, NFkB reporter, CHO-PDL1, 24 h [1]: 13.8 ng/mL
- EC50, NFkB reporter, CHO-PDL1, 24 h, +HSA [1]: 14.8 ng/mL
- EC50, NFkB reporter, CHO-PDL1, 6 h [2]: 7.84 ng/mL
- EC50, NFkB reporter, CHO-PDL1, 6 h, +HSA [2]: 7.92 ng/mL
- IC50 (ng/ml), NF-AT potency assay (human PDL1 on cells): 137 ng/mL
- rel. IC50 (avelumab/test) (human PDL1 on cells): 0.28 fold
- EC50, NFkB reporter, CHO-PDL1 [3]: 5.13 ng/mL and 4.86 ng/mL and 6.3 ng/mL
- EC50, NFkB reporter, HCC827 with IFNg [4]: 9.27 ng/mL and 8.88 ng/mL and 9.23 ng/mL
- IC50 (biotinylated human PDL1 [5]): 12.2 ng/mL
- rel. IC50 (IC50 avelumab/IC50 test) (biotinylated human PDL1 [5]): 0.59 fold
- EC50, NFkB reporter, CHO-PDL1 [6]: 11.7 ng/mL
- IC50 (biotinylated human PDL1 [7]): 8.35 ng/mL
- rel. IC50 (IC50 avelumab/IC50 test) (biotinylated human PDL1 [7]): 0.17 fold
- EC50, NFkB reporter, HCC827 with IFNg, 24 h [8]: 7.51 ng/mL
- EC50, NFkB reporter, HCC827 without IFNg, 24 h [8]: 9.52 ng/mL
- IC50 (ng/ml), NFkB reporter, CHO-PD-L1 [9]: 11.7 ng/mL
- IC50 (ng/ml), NFkB reporter, HCC827 + IFNg [9]: 8.88 ng/mL
- IC50 (ng/ml), NFkB reporter, HCC827 - IFNg [9]: 13.1 ng/mL
- max. activation (%), NFkB reporter, CHO-PD-L1 [9]: 499%
- max. activation (%), NFkB reporter, HCC827 + IFNg [9]: 134%
- max. activation (%), NFkB reporter, HCC827 - IFNg [9]: 111%
- rel. IC50 (urelumab/test), NFkB reporter, CHO-PD-L1 [9]: 6.75 fold
- rel. IC50 (urelumab/test), NFkB reporter, HCC827 + IFNg [9]: 16.3 fold
- rel. IC50 (urelumab/test), NFkB reporter, HCC827 - IFNg [9]: 8.42 fold
- Kd [10]: 0.6 µM
- koff [10]: 0.18 s⁻¹
- kon [10]: 290000 M⁻¹ s⁻¹
- Kd [11]: 0.0021 µM
- koff [11]: 0.0007 s⁻¹
- kon [11]: 340000 M⁻¹ s⁻¹
- koff (Fc tagged human CD137): 0.00076 s⁻¹
- kon (Fc tagged human CD137): 240000 M⁻¹ s⁻¹
- koff (Fc tagged human PDL1): 0.00014 s⁻¹
- kon (Fc tagged human PDL1): 2.1e+06 M⁻¹ s⁻¹
- EC50, NFkB reporter, HCC827 without IFNg [12]: 11.5 ng/mL and 13.1 ng/mL and 13 ng/mL
B1: PRO885 (bispecific antibody)
chain: DIQMTQSPSSLSASVGDRVTITCQASQSINDYLAWYQQKPGKAPKLLIYKASTLASGVPSRFSGSGSGTDFTLTISSLQPEDFATYYCQQGYIITDIDNVFGTGTKVTVLGGGGGSQVQLQESGPGLVKPSETLSLTCKVSGFSFSNSYWICWIRQPPGKGLEWIGCTFVGSSDSTYYANWAKGRVTISVDSSKNQFSLKLSSVTAADTAVYYCARHPSDAVYGYANNLWGQGTLVTVSSGGGGSGGGGSGGGGSGGGGSIQMTQSPSSLSASVGDRVTITCQASQSINNVLAWYQQKPGKAPKLLIYRASTLASGVPSRFSGSGSGTDFTLTISSLQPEDFATYYCQSSYGNYGDFGTGTKVTVLGGGGGSQVQLQESGPGLVKPSETLSLTCKVSGFSFSSGYDMCWIRQPPGKGLEWIGCVVAGSVDITYYASWAKGRVTISVDSSKNQFSLKLSSVTAADTAVYYCARKDAYSDAFNLWGQGTLVTVSS
notes: scDb anti-PDL1 x CD137; also called 38-02-A04 sc01 scDb-i/33-03-G02 sc01 scDb-o
